# Experimental data taken from the supplement of paper PMC10567573.
# B1: ISL2 (parent)
# chain: HYPFLGAMGDHSKKKPGTAMCVGC
# Variants of: B1
# Assay: protein stability index of a GFP-peptide fusion (GPS, HEK-293T) (PSI 1-6); higher = more stable
# Settings: c terminus: a fixed tail appended
# 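Note: lentivirally expressed fusions sorted by FACS into six bins by GFP to DsRed ratio, PSI derived from sequencing read proportions per bin multiplied by bin number.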
row,Variant,protein stability index
1,HFPFLGAMGDHSKKKPGTAMCVGC,2.55
2,HGPFLGAMGDHSKKKPGTAMCVGC,3.54
3,HHPFLGAMGDHSKKKPGTAMCVGC,2.48
4,HIPFLGAMGDHSKKKPGTAMCVGC,2.79
5,HKPFLGAMGDHSKKKPGTAMCVGC,2.83
6,HLPFLGAMGDHSKKKPGTAMCVGC,3.37
7,HMPFLGAMGDHSKKKPGTAMCVGC,2.97
8,HNPFLGAMGDHSKKKPGTAMCVGC,4.08
9,HPPFLGAMGDHSKKKPGTAMCVGC,3.58
10,HQPFLGAMGDHSKKKPGTAMCVGC,3.04
11,HRPFLGAMGDHSKKKPGTAMCVGC,2.94
12,HSPFLGAMGDHSKKKPGTAMCVGC,3.33
13,HTPFLGAMGDHSKKKPGTAMCVGC,4.07
14,HVPFLGAMGDHSKKKPGTAMCVGC,2.6
15,HWPFLGAMGDHSKKKPGTAMCVGC,2.16
16,HYAFLGAMGDHSKKKPGTAMCVGC,2.32
17,HYCFLGAMGDHSKKKPGTAMCVGC,2.84
18,HYDFLGAMGDHSKKKPGTAMCVGC,1.96
19,HYEFLGAMGDHSKKKPGTAMCVGC,3.04
20,HYFFLGAMGDHSKKKPGTAMCVGC,1.93
21,HYGFLGAMGDHSKKKPGTAMCVGC,3.08
22,HYHFLGAMGDHSKKKPGTAMCVGC,2.31
23,HYIFLGAMGDHSKKKPGTAMCVGC,2.26
24,HYKFLGAMGDHSKKKPGTAMCVGC,2.15

row,Variant,protein stability index
1,HYLFLGAMGDHSKKKPGTAMCVGC,1.77
2,HYMFLGAMGDHSKKKPGTAMCVGC,2.18
3,HYNFLGAMGDHSKKKPGTAMCVGC,2.5
4,HYQFLGAMGDHSKKKPGTAMCVGC,3.11
5,HYRFLGAMGDHSKKKPGTAMCVGC,2.35
6,HYSFLGAMGDHSKKKPGTAMCVGC,2.27
7,HYTFLGAMGDHSKKKPGTAMCVGC,2.04
8,HYVFLGAMGDHSKKKPGTAMCVGC,2.06
9,HYWFLGAMGDHSKKKPGTAMCVGC,1.76
10,HYYFLGAMGDHSKKKPGTAMCVGC,1.69
11,HYPALGAMGDHSKKKPGTAMCVGC,3.75
12,HYPCLGAMGDHSKKKPGTAMCVGC,3.27
13,HYPDLGAMGDHSKKKPGTAMCVGC,3.83
14,HYPELGAMGDHSKKKPGTAMCVGC,4.72
15,HYPGLGAMGDHSKKKPGTAMCVGC,3.25
16,HYPHLGAMGDHSKKKPGTAMCVGC,3.73
17,HYPILGAMGDHSKKKPGTAMCVGC,3.03
18,HYPKLGAMGDHSKKKPGTAMCVGC,2.92
19,HYPLLGAMGDHSKKKPGTAMCVGC,2.51
20,HYPMLGAMGDHSKKKPGTAMCVGC,3.48
21,HYPNLGAMGDHSKKKPGTAMCVGC,3.38
22,HYPPLGAMGDHSKKKPGTAMCVGC,3.34
23,HYPQLGAMGDHSKKKPGTAMCVGC,3.58
24,HYPRLGAMGDHSKKKPGTAMCVGC,2.89

row,Variant,protein stability index
1,HYPSLGAMGDHSKKKPGTAMCVGC,3.48
2,HYPTLGAMGDHSKKKPGTAMCVGC,3.19
3,HYPVLGAMGDHSKKKPGTAMCVGC,3.3
4,HYPWLGAMGDHSKKKPGTAMCVGC,3.02
5,HYPYLGAMGDHSKKKPGTAMCVGC,2.21
6,HYPFAGAMGDHSKKKPGTAMCVGC,3.15
7,HYPFCGAMGDHSKKKPGTAMCVGC,3.56
8,HYPFDGAMGDHSKKKPGTAMCVGC,3.75
9,HYPFEGAMGDHSKKKPGTAMCVGC,3.78
10,HYPFFGAMGDHSKKKPGTAMCVGC,3.19
11,HYPFGGAMGDHSKKKPGTAMCVGC,3.5
12,HYPFHGAMGDHSKKKPGTAMCVGC,2.96
13,HYPFIGAMGDHSKKKPGTAMCVGC,3.14
14,HYPFKGAMGDHSKKKPGTAMCVGC,2.47
15,HYPFMGAMGDHSKKKPGTAMCVGC,3.01
16,HYPFNGAMGDHSKKKPGTAMCVGC,2.49
17,HYPFPGAMGDHSKKKPGTAMCVGC,3.13
18,HYPFQGAMGDHSKKKPGTAMCVGC,3.16
19,HYPFRGAMGDHSKKKPGTAMCVGC,2.66
20,HYPFSGAMGDHSKKKPGTAMCVGC,3.1
21,HYPFTGAMGDHSKKKPGTAMCVGC,2.96
22,HYPFVGAMGDHSKKKPGTAMCVGC,2.63
23,HYPFWGAMGDHSKKKPGTAMCVGC,2.23
24,HYPFYGAMGDHSKKKPGTAMCVGC,2.2

row,Variant,protein stability index
1,HYPFLAAMGDHSKKKPGTAMCVGC,3.07
2,HYPFLCAMGDHSKKKPGTAMCVGC,3.15
3,HYPFLDAMGDHSKKKPGTAMCVGC,3.2
4,HYPFLEAMGDHSKKKPGTAMCVGC,3.16
5,HYPFLFAMGDHSKKKPGTAMCVGC,1.86
6,HYPFLHAMGDHSKKKPGTAMCVGC,2.46
7,HYPFLIAMGDHSKKKPGTAMCVGC,2.27
8,HYPFLKAMGDHSKKKPGTAMCVGC,2.92
9,HYPFLLAMGDHSKKKPGTAMCVGC,2.07
10,HYPFLMAMGDHSKKKPGTAMCVGC,2.07
11,HYPFLNAMGDHSKKKPGTAMCVGC,2.54
12,HYPFLPAMGDHSKKKPGTAMCVGC,2.83
13,HYPFLQAMGDHSKKKPGTAMCVGC,2.81
14,HYPFLRAMGDHSKKKPGTAMCVGC,2.13
15,HYPFLSAMGDHSKKKPGTAMCVGC,2.32
16,HYPFLTAMGDHSKKKPGTAMCVGC,2.81
17,HYPFLVAMGDHSKKKPGTAMCVGC,1.93
18,HYPFLWAMGDHSKKKPGTAMCVGC,1.75
19,HYPFLYAMGDHSKKKPGTAMCVGC,2.49
20,HYPFLGCMGDHSKKKPGTAMCVGC,3.85
21,HYPFLGDMGDHSKKKPGTAMCVGC,3.68
22,HYPFLGEMGDHSKKKPGTAMCVGC,3.79
